In US20240158499A1 (Janssen / Centocor, published 2024):

Legend:
[1] = molecular target: T1, extracellular domain (ECD) of human CD79B isoform 2, CD9W8 (human); test: SPR; hCD79B-short
T1 construct: It also carries C-terminal tag residues ending in a 6xHis tag; also called CD79b short isoform; hCD79B-short
T1 chain: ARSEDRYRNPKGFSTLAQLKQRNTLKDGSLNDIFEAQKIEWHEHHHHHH

[2] = molecular target: T2, extracellular domain (ECD) of human CD79B isoform 1, CD9W7 (human); test: SPR; hCD79B-long
T2 construct: It also carries C-terminal tag residues ending in a 6xHis tag; also called CD79b long isoform; hCD79B-long
T2 chain: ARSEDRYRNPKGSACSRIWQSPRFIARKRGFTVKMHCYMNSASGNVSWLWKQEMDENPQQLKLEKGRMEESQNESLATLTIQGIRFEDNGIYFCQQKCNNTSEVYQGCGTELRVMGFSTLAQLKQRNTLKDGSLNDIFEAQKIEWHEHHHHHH

Kd [1]: 2.21 nM | Kd [2]: 0.78 nM
B1: CD9B1256 (antibody, V domains shown)
VH: EVQLVESGPGLVEPSETLSLTCTVSGGSISSYYWSWIRQPAGKGLEWIGRIYSSGSTNYNPSLKSRVTMSVDTSENQFSLNLNSVTAADTAKYYCARGEYSGDLGGYGLDVWGQGTMVTVSS
VL: EIVMTQSPLSLSVTPGEPASISCRSSQSLLDSDDGNTYLDWYLQKPGQSPQLLIQTLSYRASGVPDRFSGRGSGTDFTLKISRVEAEDVGIYYCMQRMEFPLTFGGGTKVDIKR
notes: also called VR000056263
